Test results reported in the supplement of paper PMC9112550, “Optimization of the antimicrobial peptide Bac7 by deep mutational scanning” (BMC Biology, 2022).
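Also: peptides expressed intracellularly from a pBAD plasmid library in pooled LB shake-flask culture, induced with 0.3% L-arabinose, DNA abundance read by NGS, three biological replicates, DESeq2 with apeglm shrinkage.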

Each sequence was assayed on Escherichia coli TOP10 (assay: shrunken log2 fold change of peptide-encoding DNA abundance (4.5 h post-induction vs induction); higher = less antimicrobial activity (less host growth inhibition)). Conditions: time post-induction: 4.5 h; library: site-saturation at positions 5, 18, 19, 20.
For RRIRERPPRLPRPRPRPHHTPRP, the “shrunken log2 fold change” value was -0.268. In the case of RRIRHRPPRLPRPRPRPYCAPRP, the “shrunken log2 fold change” value is reported as -0.346. With RRIRCRPPRLPRPRPRPDQFPRP the “shrunken log2 fold change” value was 0.07. In the case of RRIRVRPPRLPRPRPRPPCWPRP, the “shrunken log2 fold change” value is reported as 0.422. With RRIRSRPPRLPRPRPRPRPFPRP the “shrunken log2 fold change” value was 0.188. RRIRHRPPRLPRPRPRPTFVPRP was tested, and the “shrunken log2 fold change” value was -0.152. For RRIRFRPPRLPRPRPRPLWQPRP, the “shrunken log2 fold change” value was -0.308. For RRIRLRPPRLPRPRPRPKFYPRP, the “shrunken log2 fold change” value was -0.369. RRIRKRPPRLPRPRPRPPPIPRP was tested, and the “shrunken log2 fold change” value was 0.748. For RRIRWRPPRLPRPRPRPIYLPRP, the “shrunken log2 fold change” value was -0.674. RRIRDRPPRLPRPRPRPKILPRP was tested, and the “shrunken log2 fold change” value was 0.042. With RRIRKRPPRLPRPRPRPYKNPRP the “shrunken log2 fold change” value was -0.176. With RRIRNRPPRLPRPRPRPSNIPRP the “shrunken log2 fold change” value was -0.28. RRIRPRPPRLPRPRPRPFTYPRP was tested, and the “shrunken log2 fold change” value was -0.0519. For RRIRGRPPRLPRPRPRPPTIPRP, the “shrunken log2 fold change” value was 0.459. In the case of RRIRVRPPRLPRPRPRPYEWPRP, the “shrunken log2 fold change” value is reported as -0.303. For RRIRFRPPRLPRPRPRPNINPRP, the “shrunken log2 fold change” value was -0.536. With RRIRLRPPRLPRPRPRPINDPRP the “shrunken log2 fold change” value was -0.35. RRIRNRPPRLPRPRPRPVKQPRP was tested, and the “shrunken log2 fold change” value was 0.00788. In the case of RRIRMRPPRLPRPRPRPPVPPRP, the “shrunken log2 fold change” value is reported as 1.01. For RRIRDRPPRLPRPRPRPVCVPRP, the “shrunken log2 fold change” value was 0.514. RRIRERPPRLPRPRPRPKVFPRP was tested, and the “shrunken log2 fold change” value was 0.0354. RRIRTRPPRLPRPRPRPMHYPRP was tested, and the “shrunken log2 fold change” value was -1.41. In the case of RRIRLRPPRLPRPRPRPDPHPRP, the “shrunken log2 fold change” value is reported as -0.171. In the case of RRIRRRPPRLPRPRPRPPVYPRP, the “shrunken log2 fold change” value is reported as 0.32. RRIRERPPRLPRPRPRPHDYPRP was tested, and the “shrunken log2 fold change” value was 0.0456. In the case of RRIRDRPPRLPRPRPRPMCYPRP, the “shrunken log2 fold change” value is reported as -0.0124. In the case of RRIRRRPPRLPRPRPRPAHSPRP, the “shrunken log2 fold change” value is reported as 0.384. In the case of RRIRWRPPRLPRPRPRPNDGPRP, the “shrunken log2 fold change” value is reported as -0.00211. RRIRIRPPRLPRPRPRPSFFPRP was tested, and the “shrunken log2 fold change” value was -0.654. With RRIRWRPPRLPRPRPRPVFFPRP the “shrunken log2 fold change” value was 0.238. In the case of RRIRTRPPRLPRPRPRPWLTPRP, the “shrunken log2 fold change” value is reported as -0.0866. With RRIRRRPPRLPRPRPRPFKVPRP the “shrunken log2 fold change” value was -0.0272. In the case of RRIRYRPPRLPRPRPRPIDNPRP, the “shrunken log2 fold change” value is reported as -0.542. For RRIRKRPPRLPRPRPRPYTSPRP, the “shrunken log2 fold change” value was -0.05. In the case of RRIRDRPPRLPRPRPRPRKHPRP, the “shrunken log2 fold change” value is reported as -0.134. With RRIRERPPRLPRPRPRPTLPPRP the “shrunken log2 fold change” value was 0.123. For RRIRRRPPRLPRPRPRPGWCPRP, the “shrunken log2 fold change” value was 0.422. For RRIRRRPPRLPRPRPRPFRKPRP, the “shrunken log2 fold change” value was -0.00961. For RRIRWRPPRLPRPRPRPGQCPRP, the “shrunken log2 fold change” value was 0.00553. RRIRNRPPRLPRPRPRPHNPPRP was tested, and the “shrunken log2 fold change” value was -0.143. In the case of RRIRNRPPRLPRPRPRPQTCPRP, the “shrunken log2 fold change” value is reported as 0.0139. RRIRERPPRLPRPRPRPWVYPRP was tested, and the “shrunken log2 fold change” value was -0.157. For RRIRGRPPRLPRPRPRPSDIPRP, the “shrunken log2 fold change” value was 0.399. RRIRVRPPRLPRPRPRPEKKPRP was tested, and the “shrunken log2 fold change” value was -0.0337. In the case of RRIRQRPPRLPRPRPRPWNKPRP, the “shrunken log2 fold change” value is reported as -0.34. With RRIRHRPPRLPRPRPRPSCRPRP the “shrunken log2 fold change” value was -0.105. In the case of RRIRGRPPRLPRPRPRPIRYPRP, the “shrunken log2 fold change” value is reported as -0.0811. For RRIRWRPPRLPRPRPRPMIFPRP, the “shrunken log2 fold change” value was -0.302. In the case of RRIRQRPPRLPRPRPRPRHTPRP, the “shrunken log2 fold change” value is reported as -0.147. In the case of RRIRARPPRLPRPRPRPRVSPRP, the “shrunken log2 fold change” value is reported as 0.492. For RRIRFRPPRLPRPRPRPCNIPRP, the “shrunken log2 fold change” value was 0.0928. RRIRIRPPRLPRPRPRPHAAPRP was tested, and the “shrunken log2 fold change” value was -0.298. For RRIRKRPPRLPRPRPRPYPAPRP, the “shrunken log2 fold change” value was 0.289. For RRIRNRPPRLPRPRPRPVLCPRP, the “shrunken log2 fold change” value was 0.0343. For RRIRNRPPRLPRPRPRPSISPRP, the “shrunken log2 fold change” value was -0.256. RRIRKRPPRLPRPRPRPLKHPRP was tested, and the “shrunken log2 fold change” value was 0.0711. In the case of RRIRKRPPRLPRPRPRPKGQPRP, the “shrunken log2 fold change” value is reported as 0.00959. RRIRYRPPRLPRPRPRPKARPRP was tested, and the “shrunken log2 fold change” value was 0.0182. RRIRRRPPRLPRPRPRPQVPPRP was tested, and the “shrunken log2 fold change” value was 0.11. For RRIRLRPPRLPRPRPRPENSPRP, the “shrunken log2 fold change” value was 0.000683. RRIRNRPPRLPRPRPRPYFLPRP was tested, and the “shrunken log2 fold change” value was -0.897. In the case of RRIRNRPPRLPRPRPRPTNAPRP, the “shrunken log2 fold change” value is reported as -0.182. RRIRIRPPRLPRPRPRPFKDPRP was tested, and the “shrunken log2 fold change” value was -0.0121. With RRIRRRPPRLPRPRPRPWMVPRP the “shrunken log2 fold change” value was -0.151. For RRIRIRPPRLPRPRPRPLCCPRP, the “shrunken log2 fold change” value was -0.317. With RRIRLRPPRLPRPRPRPERNPRP the “shrunken log2 fold change” value was 0.129. For RRIRCRPPRLPRPRPRPICQPRP, the “shrunken log2 fold change” value was -0.0542. For RRIRDRPPRLPRPRPRPSFEPRP, the “shrunken log2 fold change” value was 0.495. In the case of RRIRSRPPRLPRPRPRPDHKPRP, the “shrunken log2 fold change” value is reported as -0.18. With RRIRNRPPRLPRPRPRPIQRPRP the “shrunken log2 fold change” value was 0.00743. For RRIRCRPPRLPRPRPRPEWYPRP, the “shrunken log2 fold change” value was -0.256. RRIRWRPPRLPRPRPRPRSPPRP was tested, and the “shrunken log2 fold change” value was 0.779. For RRIRWRPPRLPRPRPRPEHWPRP, the “shrunken log2 fold change” value was 0.83. RRIRERPPRLPRPRPRPDSAPRP was tested, and the “shrunken log2 fold change” value was -0.213.
